Assay results reported in US20240376196A1 (HEFEI TG IMMUNOPHARMA, published 2024).

Key:
[1] = target: T1, human CD112 extracellular region His tag fusion protein (human, UniProt Q92692 32-360); experiment: competition ELISA, CD112-His coated, blocked ligand TIGIT-Biotin, HRP-streptavidin, OD450
T1 construct: Bought from Acro; only its extracellular domain stood in the assay; also called CD112-His; CD112 extracellular domain His tag fusion protein; not shown: His tag
T1 sequence: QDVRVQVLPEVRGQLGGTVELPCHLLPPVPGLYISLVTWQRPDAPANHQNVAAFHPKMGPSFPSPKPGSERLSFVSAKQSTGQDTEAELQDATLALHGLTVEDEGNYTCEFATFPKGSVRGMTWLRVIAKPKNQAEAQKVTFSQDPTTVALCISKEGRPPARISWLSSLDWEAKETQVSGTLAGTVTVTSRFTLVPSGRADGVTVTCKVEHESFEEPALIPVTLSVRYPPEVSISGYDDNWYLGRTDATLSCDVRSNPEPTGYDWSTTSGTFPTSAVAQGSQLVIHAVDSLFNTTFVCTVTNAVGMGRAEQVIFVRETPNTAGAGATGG
Description: (§1) The ELISA experiment was used to determine the blocking characteristic of the murine antibody CD112 9G11 antibody.
(§2) The human CD112-His protein (purchased from Acro) was diluted to 2 μg/ml with PBS buffer and added to a 96-well plate in a volume of 100 μl/well and left overnight at 4° C. The PBS buffer solution was sucked off from the 96-well plate. The plate was washed 6 times with PBST (pH 7.2, PBS containing 0.1 vol % of Tween 20) buffer solution. 200 μL of PBS containing 10% BSA was added per well and incubated at 37° C. for 2 hours for blocking. The blocking solution was removed and the plate was washed 6 times with PBST. […] The reaction system was removed. The plate was washed 6 times with PBST. 100 μL of HRP (horseradish peroxidase)-labeled Streptavidin secondary (purchased from Southern Biotech) antibody diluted with PBST containing 0.05% BSA (diluted at 1:5000) per well and incubated for 1 h at 37° C. The plate was washed 6 times with PBST, and 80 μL of TMB (tetramethylbenzidine) was added per well. After 3 min of incubation at room temperature, 80 μL of 4M sulfuric acid was added per well to terminate the reaction. The absorbance was read at […] with a microplate reader.

[2] = target: T1, human CD112 extracellular region His …; experiment: competition ELISA, CD112-His coated, blocked ligand CD226-Biotin, HRP-streptavidin, OD450
Description: as §1, §2

[3] = target: T1, human CD112 extracellular region His …; experiment: competition ELISA, CD112-His coated, blocked ligand CD112R-Fc-Biotin, HRP-streptavidin, OD450
Description: as §1, §2

B1: murine monoclonal antibody 9G11 (antibody, mouse IgG2a, kappa)
heavy: DVKLVESGGGLVKLGGSLKLSCAASGFTFSSYYMSWVRQTPEKRLELVAAINSQGGSTYYPDTVKGRFTISRDNAKNTLYLQMSSLKSEDTGLYYCARSDYDWAWFAYWGQGTLVTVSAAKTTAPSVYPLAPVCGDTTGSSVTLGCLVKGYFPEPVTLTWNSGSLSSGVHTFPAVLQSDLYTLSSSVTVTSSTWPSQSITCNVAHPASSTKVDKKIEPRGPTIKPCPPCKCPAPNLLGGPSVFIFPPKIKDVLMISLSPIVTCVVVDVSEDDPDVQISWFVNNVEVHTAQTQTHREDYNSTLRVVSALPIQHQDWMSGKEFKCKVNNKDLPAPIERTISKPKGSVRAPQVYVLPPPEEEMTKKQVTLTCMVTDFMPEDIYVEWTNNGKTELNYKNTEPVLDSDGSYFMYSKLRVEKKNWVERNSYSCSVVHEGLHNHHTTKSFSRTPGK
light: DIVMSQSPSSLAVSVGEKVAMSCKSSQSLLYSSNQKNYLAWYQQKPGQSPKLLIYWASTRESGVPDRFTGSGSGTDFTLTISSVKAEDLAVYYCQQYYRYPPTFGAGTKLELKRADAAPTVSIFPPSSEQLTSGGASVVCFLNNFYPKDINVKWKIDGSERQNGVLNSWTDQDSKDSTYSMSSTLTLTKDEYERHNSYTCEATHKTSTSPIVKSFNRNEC
notes: also called 9G11 antibody; CD112 murine antibody 9G11
IC50 (read off the curve) [1]: ~0.5 µg/mL | IC50 (read off the curve) [2]: ~6 µg/mL | IC50 (read off the curve) [3]: ~0.5 µg/mL
